Numbering of substitutions follows the chain as printed.
T1: human soluble IL-6R, recombinant (human, UniProt P08887 20-358)
T1 construct: also called human IL6-R; bio-IL-6R
T1 sequence (looked up): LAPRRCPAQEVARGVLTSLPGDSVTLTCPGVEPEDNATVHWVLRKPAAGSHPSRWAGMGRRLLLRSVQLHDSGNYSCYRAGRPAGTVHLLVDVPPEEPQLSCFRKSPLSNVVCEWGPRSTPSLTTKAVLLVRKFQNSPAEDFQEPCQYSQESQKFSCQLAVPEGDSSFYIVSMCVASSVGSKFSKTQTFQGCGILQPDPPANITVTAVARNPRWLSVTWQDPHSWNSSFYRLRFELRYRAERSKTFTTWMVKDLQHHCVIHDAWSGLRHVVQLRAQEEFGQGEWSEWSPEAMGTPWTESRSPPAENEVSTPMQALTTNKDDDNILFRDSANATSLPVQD

B1: IL6RPMP100G11 (VHH)
VHH: EVQLVESGGGLVQAGGSLRLSCAASGRGFSPYTMGWFRQAPGKERVFVAGISWSTGIAHYTDSVKGRFTISRDNAKNTGSLQMNSLKPEDTAVYYCAVVQTTKGNYDYWGQGTQVTVSS
notes: family 4; also called IL6R100G11
B2: IL6RPMP104B8 (VHH)
VHH: EVQLVESGGGLVQAGGSLRLSCAASGFAFDDYAIGWFRQAPGKEREGVSSISSSNGNTYYADSVRGRFTISSDNAKNTVYLQMNSLKPEDTGVYYCAAIWGIFFNEKMPVGAYDYWGQGTQVTVSS
notes: family 3; also called PMP104B08; IL6R104B8
B3: IL6RPMP105B8 (VHH)
VHH: B2 VHH with Q13R
notes: family 3; periplasmic extract
B4: IL6RPMP105H10 (VHH)
VHH: B2 VHH with L4M, T91A
notes: family 3; periplasmic extract
B5: IL6RPMP108E1 (VHH)
VHH: EVQLVESGGGLVQAGGSLRLSCAASGFTFDDYDIGWFRQAPGKEREGVSGISSSDGNTYYADSVKGRFTISSDNAKNTVYLQMNSLKPEDTAVYYCAAEPPDSSWYLDGSPEFFKYWGQGTQVTVSS
notes: family 20; also called PMP108E01
B6: IL6RPMP107A1 (VHH)
VHH: EVQLVESGGGLVQAGGSLNLSCNASGDIGSINAMGWYRQAPGQQREWVAVITDTDSTIYPDSVKGRFAISRDGAKNTVHLRMSSLKPEDTAVYYCNAYQAGWGDYWGQGTQVTVSS
notes: also called IL6R107A1
B7: IL6RPMP107A9 (VHH)
VHH: EVQLVESGGGLVQAGGSLRLSCAASGGIFSDMFMGWFRQAPGKSRESVARISPSGNTFYQDSVRGRFTISTDNAKNTVYLQMNNLKPEDTAVYYCAANVGVTGSYEYWGQGTQVTVSS
notes: family 21; also called IL6R107A9
B8: IL6RPMP103H9 (VHH)
VHH: EVQLVESGGGLVQPGGSLRLSCAASKSIFDINAMYWHRQAPGKQRESVASITSGGMRNYADSVKDRFTISKDNAKNTVYLQMNGLKPDDTAVYYCGLGRYEGGVWRDYWGQGTQVTVSS
notes: family 13; also called PMP103H09; IL6R103H9
B9: IL6RPMP120G6 (VHH)
VHH: EVQLVESGGDLVQTGGSLRLSCAASGITVSDRAMGWYRQAPGKQREMVAGVSRGGMTSYADSVKGRLTISRDNAKNSVYLQMNSLNPEDTAVYYCSAYYRYGSSVPQYWGQGTQVTVSS
B10: IL6RPMP101A5 (VHH)
VHH: EVQLVESGGGLVQAGGSLRLSCTASGRTFSDYDMGWFRQAPGKERECVAIIDTNGDNTLIVGSVKGRFAISSDNAKNTVYLQMNSLLPEDTAVYTCAAGVWSSLRHTAANYWGQGTQVTVSS
notes: family 5; periplasmic extract
B11: IL6RPMP104B9 (VHH)
VHH: B10 VHH
notes: family 5; periplasmic extract
B12: IL6RPMP108C10 (VHH)
VHH: B10 VHH with A14P, I50V, I60T, S72R, V100A, H106S
B13: IL6RPMP108D1 (VHH)
VHH: B10 VHH with I50V, I60T, S72R, V100A, H106S, Q117K
B14: IL6RPMP108D10 (VHH)
VHH: B10 VHH with L11S, I50V, I60T, S72R, V100A, H106S
B15: IL6RPMP108F7 (VHH)
VHH: B10 VHH with I50V, I60T, S72R, V100A, H106S
B16: IL6RPMP101B6 (VHH)
VHH: EVQLVESGGGLVQAGGSLRLSCAASGSDFSIKAMGWYRQAPGKQRELVARITSGGSTVYADSVKGRFTISRDNAKNTVYLQMNSLKPEDATVYYCNAIVTYSDYDLGNDYWGQGTQVTVSS
notes: family 7; periplasmic extract
B17: IL6RPMP100D11 (VHH)
VHH: EVQLVESGGGLVQAGDSLRLSCLASGRSFKDDAMGWFRQAPGKEREFVSGIDWRGNIVDAESVKGRFTISRENAKNTLYLQMNHLKPEDTAVYYCAASSVFSDLRYRKNPKYWGQGTQVTVSS
B18: IL6RPMP103A2 (VHH)
VHH: EVQLVESGGGLVQPGGSLRLSCAASGSIFSINTMGWYRQVPGKQRELVATVRSGSITNYADSVQDQFTITRDIDENTVYLQMNSLKPEDTAVYYCLTRASVPGRGYQDYWGQGTQVTVSS
B19: IL6RPMP103A4 (VHH)
VHH: B18 VHH with Q66R
B20: IL6RPMP107B4 (VHH)
VHH: EVQLVESGGGLVQAGGSLRLSCVASGLRLNMHRMGWFRQAPGKEREFVARIFTDDGDSYYADSVQGRFTISGDNAKNTVYLQMNSLKPEDTGVYFCAAGYMSGAESPIGYDNWGQGTQVTVSS
notes: family 17; periplasmic extract; also called PMP107B04
B21: IL6RPMP103A5 (VHH)
VHH: EVQLVESGGGLVQAGDSLRLSCVASGLPFSTLHMGWFRQAPGKEHESVSAISSDGGSEYYAGSVKGRFTISRDNAKNTVYLQMNSLKPEDTAVYYCAADPRRIGANIKYSDYWGQGTQVTVSS
B22: IL6RPMP103B2 (VHH)
VHH: EVQLVESGGGLVQPGGSLRLSCAASGSTFSINMMAWYCQAPGKQRELVASISSGGGINYADSVKGRFTISRDYAENSVDLQMNSLKPEDTAVYYCNARGTYLNGDHYSTNYNSWGQGTQVTVSS
B23: IL6RPMP101G11 (VHH)
VHH: EVQLVESGGGLVQPGGSLRLSCAASASGFTLDYYAIGWFRQAPGKEREGVSCISSTDGSTYYADSVKGRFTISRDNAKNTVYLQMNSLNPEDTGVYTCAAVLTTAQAMGVPTRSYEYDYWGQGTQVTVSS
notes: family 2; periplasmic extract
B24: IL6RPMP106B2 (VHH)
VHH: EVQLVESGGGLVQAGGSLRLSCAASGSIFRINAMGWYRQAPGKQRELVAAAISGGSTNYADFVKGRFTISRDNAKNTVYLQMNSLKPEDTAVYYCNALVVSHNYSDYVPFPDDYWGQGTQVTVSS
notes: family 6; periplasmic extract
B25: IL6RPMP105C2 (VHH)
VHH: B24 VHH with K43E
notes: family 6; periplasmic extract
B26: IL6RPMP105D3 (VHH)
VHH: B24 VHH with V5E
notes: family 6; periplasmic extract
B27: IL6RPMP106F7 (VHH)
VHH: B24 VHH with G8E
notes: family 6; periplasmic extract
B28: IL6RPMP107E4 (VHH)
VHH: EVQLVESGGGLVQAGGSLRLSCAASGSIDRINAMGWYRQAPGKQRDFLAVITDGDKTLYADSVKGRFTISNDNAKNTVYLQMNSLKPEDTAVYYCNAYQAGWGDYWGQGTQVTVSS
notes: periplasmic extract
B29: IL6RPMP104E7 (VHH)
VHH: EVQLVESGGGLVQAGGSLRLSCAAGGSIFSINAMGWYRQAPGKQRELVASITSGGSTTYADSVKGRFTISRDNAKDTVYLQMNSLKPEDTAVYYCNAHIRFPFPNDYWGQGTQVTVSS
notes: family 18; periplasmic extract; also called PMP104E07
B30: IL6RPMP106D6 (VHH)
VHH: EVQLVESGGGLVQAGGSLRLSCAASGFTFDDYAIGWFRQAPGKEREGVSCMISSDGSTYYADSVKGRFTISSDNAKNTVYLQMDSLKPEDTAVYYCAADLSLYGCYVGDRDLYDYDYWGQGTQVTVSS
notes: family 22; periplasmic extract; also called PMP106D06
B31: IL6RPMP103C3 (VHH)
VHH: EVQLVESGGGLVQPGGSMRLSCAATGAIFSISTMGWYRQAPGAQREFVAGVGLDGTPNYADSVKGRFTISRDNTKNTVSLQMENLKPEDTGVYYCNIDEGMDYDGNFYDRWGQGTQVTVSS
notes: family 14; periplasmic extract
B32: IL6RPMP108E9 (VHH)
VHH: EVQLVESGGGLVQAGGSLRLSCAFSRRSFGNFPMGWFRQRPGEEREYVAVISWNNNYIHYRDSVKGRFTASRDTSENRMYLQMNGLKPEDTAVYYCAARTKDNTLFTPAEEYDYWGQGTQVTVSS
notes: family 15; periplasmic extract
B33: IL6RPMP108C9 (VHH)
VHH: EVQLVESGGGLVQAGGSLRLSCAASGRTYAMAWFRQAPGKEREFVAAISIVTDYADSVKGRFNISRDNRENTVYLQMNSLKPEDTAVYYCAANTYYSGAYFPRGHEWYEYWGQGTQVTVSS
notes: family 16; periplasmic extract
B34: IL6RPMP103F2 (VHH)
VHH: EVQLVESGGGLVQAGGSLRLSCVASGHTSDTYIMAWFRQAPGKEREFVASILWDGSITYYADSVKDRFTISRDISRKTLYLQMNSLRPEDTATYTCARGIYFSRRYVDPGIYGTWGQGTQVTVSS
notes: family 26; periplasmic extract

Legend:
[1] = biological target: cynomolgus IL-6R used in Biacore (cynomolgus monkey); assay: Biacore, periplasmic extract
[2] = biological target: T1, human soluble IL-6R, recombinant; assay: Biacore, periplasmic extract
Protocol: Periplasmic extracts of representative family clones were also analyzed on Biacore. Dissociation curves were used to calculate koff rates. koff rates are depicted in Table C-6.

[3] = biological target: IL-6R on the surface of TF-1 cells (UniProt P08887); assay: cell-based or functional assay
IL-6R on the surface of TF-1 cells, sequence (P08887 20-468 limits assumed): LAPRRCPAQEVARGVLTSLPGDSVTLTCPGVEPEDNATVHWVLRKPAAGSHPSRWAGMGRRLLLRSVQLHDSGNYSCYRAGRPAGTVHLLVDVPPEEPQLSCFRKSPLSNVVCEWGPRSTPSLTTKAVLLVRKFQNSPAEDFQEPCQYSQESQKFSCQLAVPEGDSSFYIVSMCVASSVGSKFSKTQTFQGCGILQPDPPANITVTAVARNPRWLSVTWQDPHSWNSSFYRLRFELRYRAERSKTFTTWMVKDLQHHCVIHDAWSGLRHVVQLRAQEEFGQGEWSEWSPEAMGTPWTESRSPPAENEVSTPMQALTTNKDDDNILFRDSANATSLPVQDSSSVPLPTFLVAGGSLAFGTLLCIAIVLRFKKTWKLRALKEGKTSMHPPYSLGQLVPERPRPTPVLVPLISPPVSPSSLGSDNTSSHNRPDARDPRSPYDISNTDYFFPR

Row | Binder | koff [1] [s⁻¹] | koff [2] [s⁻¹] | IC50, IL-6-dependent proliferation of TF-1 cells [3] [µM] | binding result [2]
1 | B1 | 0.00045 | 0.00027 | 0.116 | –
2 | B2 | 0.01 | 0.01 | 0.245 | –
3 | B3 | 0.01 | 0.01 | – | –
4 | B4 | 0.01 | 0.01 | – | –
5 | B5 | 0.001 | 0.0001 | 0.000149 | –
6 | B6 | 0.01 | 0.00075 | 0.00405 | –
7 | B7 | 0.01 | 0.01 | 0.349 | –
8 | B8 | 0.01 | 0.01 | 1.47 | –
9 | B9 | – | – | 0.0102 | –
10 | B10 | 0.00045 | 0.00027 | – | –
11 | B11 | 0.00074 | 0.00023 | – | –
12 | B12 | 0.00071 | – | – | –
13 | B13 | 0.00079 | – | – | –
14 | B14 | 0.0009 | – | – | –
15 | B15 | 0.00074 | – | – | –
16 | B16 | 0.001 | 0.00058 | – | –
17 | B17 | 0.00074 | – | – | –

Row | Binder | koff [1] [s⁻¹] | koff [2] [s⁻¹] | IC50, IL-6-dependent proliferation of TF-1 cells [3] [µM] | binding result [2]
18 | B18 | 0.001 | – | – | –
19 | B19 | 0.00045 | – | – | –
20 | B20 | 0.01 | 0.01 | – | –
21 | B21 | 0.00074 | – | – | –
22 | B22 | 0.00045 | – | – | –
23 | B23 | – | 0.00042 | – | –
24 | B24 | – | 0.01 | – | –
25 | B25 | – | 0.01 | – | –
26 | B26 | – | 0.01 | – | –
27 | B27 | – | 0.01 | – | –
28 | B28 | – | 0.01 | – | –
29 | B29 | – | 0.001 | – | –
30 | B30 | – | 0.001 | – | –
31 | B31 | – | – | – | no binding
32 | B32 | – | – | – | no binding
33 | B33 | – | – | – | no binding
34 | B34 | – | – | – | no binding

From patent US20120171209A1 (Ablynx, published 2012)
